Laboratory results reported in US8815213B2, “RGD-(bacterio)chlorophyll conjugates for photodynamic therapy and Imaging of Necrotic tumors” (Yeda Research and Development Co. Ltd., priority 2008, dated 2014).
Counter-ions that a name gives are not always drawn. Like-named read-outs stand apart in the source and are kept apart here.

Tests used:
[1] = tested on: MDA-MB-231-RFP non-necrotic tumors (~0.5 cm^3); conditions: mouse, in vivo
Description: (§2) (vi) Mouse tumor model—MDA-MB-231-RFP fluorescent human breast cancer cells and MLS-mBanana fluorescent human ovarian cancer cells (5×10^6 in 100 μl saline) were trypsinated and collected at subconfluency and then inoculated into the back or mammary fat pad of female mice. Tumors were allowed to develop to two desired sizes—necrotic tumors (˜1 cm^3, within 3-4 weeks) and non-necrotic tumors (˜0.5 cm^3 within 1-2 weeks).
(§3) (vii) Whole body fluorescence imaging—Mice were anaesthetized by i.p. injection of 30 μl mixture of 85:15 ketamine:xylazine. […] Red fluorescent protein (RFP), pRSETB-mBanana and the photosensitizers fluorescence were monitored by in-vivo optical imaging system, IVIS®100 (Xenogen Corp., Alameda, Calif.). Main filter set for tumor imaging comprised excitation filter at 500-550 nm and emission filter at 575-650 nm; Background filter set for subtracting tissue auto-fluorescence comprised excitation filter at 460-490 nm and emission filter at 575-650 nm. Drugs imaging main filter set comprised excitation filter at 665-695 nm and emission filter at 810-875 nm. Images were obtained during the same exposure time and are illustrated on the same linear color scale to allow for a qualitative comparison.
(§4) The same parameters were next examined in tumors ≦0.5 cm^3, which are non-necrotic.

[2] = tested on: MLS-mBanana non-necrotic tumors (~0.5 cm^3); conditions: mouse, in vivo
Description: Red fluorescent protein (RFP), pRSETB-mBanana and the photosensitizers fluorescence were monitored by in-vivo optical imaging system, IVIS®100 (Xenogen Corp., Alameda, Calif.). Main filter set for tumor imaging comprised excitation filter at 500-550 nm and emission filter at 575-650 nm; Background filter set for subtracting tissue auto-fluorescence comprised excitation filter at 460-490 nm and emission filter at 575-650 nm. Drugs imaging main filter set comprised excitation filter at 665-695 nm and emission filter at 810-875 nm. Images were obtained during the same exposure time and are illustrated on the same linear color scale to allow for a qualitative comparison.

[3] = tested on: MDA-MB-231-RFP primary non-necrotic tumors; experiment: Competition assay between compound 13 and free c(RGDfK) binding; format: in vivo, mice; conditions: 24 h
Description: (ix) Competition assay between compound 13 and free c(RGDfK) binding—Mice were injected with excess (8.5 μmol) of free c(RGDfK) peptide one hour prior to the injection of compound 13 (140 nmol). The control group was injected only with compound 13 (140 nmol). Fluorescent images were taken 24 h post compound 13 injection. Fluorescence imaging main filter set was used as described in (vii).
Compound 13 was administrated with or without prior injection of c(RGDfK) as described in Example 3.

[4] = tested on: orthotopic human breast MDA-MB-231-RFP primary tumor, necrotic (~1 cm^3); conditions: mouse, in vivo
Description: as §2, §3
The accumulation pattern of compound 13 in necrotic MDA-MB-231-RFP tumors (≧1 cm^3) in vivo was examined. […] Whole animal images were recorded concomitantly, using the filter sets as described in Materials and Methods section (vii) above. Dynamic fluorescence images were acquired every 1-1.5 h for 9 h, and at 24 h post injection of compound 13 (FIGS. 4A-4B), and then for every 24 h for the next 7 days (FIGS. 5A-5B).

[5] = tested on: MLS-mBanana necrotic tumor domains; experiment: Excised tumor fluorescence imaging, MLS-mBanana; format: in vivo, mice; conditions: 7 days post drug injection
Description: (§1) Mice were sacrificed, tumors were excised, cut in half and imaged at different time intervals: 10 min, 1, 4 and 24 h, 3, 5 and 7 days for MDA-MB-231-RFP and 7 days for MLS-mBanana using the Xenogen IVIS® System. Filter sets used for the fluorescence imaging are described in (vii).
Here the results were somewhat different. In most cases the necrosis pattern in this type of tumor was not central, namely, there was a wide spread necrosis that was not specifically located in the middle of the tumor or generated from one place in the tumor. In these cases, the accumulation was not as prolonged. In the few cases where central necrosis was observed, the accumulation pattern was similar to that in the MDA-MB-231-RFP tumors. FIGS. 31-32 show the results obtained 7 days post drug injection.

[6] = tested on: MDA-MB-231-RFP necrotic tumors; experiment: Fluorescence signal measurement in necrotic tumors, tumor vs. collateral side; format: in vivo; conditions: average of 9 mice
Description: (viii) Fluorescence signal measurement in necrotic tumors—Tumor margins—region of interest (ROI), from the whole body in-vivo images was marked and the fluorescence signal within the circled margins was expressed in photon/sec.
The same ROI was used to measure photon/sec in the collateral side. In addition, for background measurements, tumor and collateral side ROIs were measured in three untreated mice and averaged. Measured values of the fluorescence from each ROI were divided by the area to provide normalized fluorescence signal intensity in photon/sec/cm^2. Signal measurements were collected from 15 min to 216 h post compound 13 injection. In each time point, the background was subtracted and the average was calculated as was the ratio between the fluorescence in the tumor margins and the collateral side.
In order to evaluate semi-quantitatively the accumulation pattern of compound 13 in necrotic tumors, the average fluorescence signal for compound 13 in necrotic tumors of 9 mice was calculated and plotted over 216 h, at several time points (FIG. 8). From 12 h post injection and onward the fluorescence signal from the tumor became distinctively stronger than that of an equivalent control region on the collateral side. The ratio of the fluorescence between the tumor and the collateral side increased in time and reached a plateau at ˜8 from 192 h.

[7] = tested on: MDA-MB-231-RFP necrotic tumor domains; experiment: Excised tumor fluorescence imaging, viable versus necrotic domains; format: in vivo, mice
Description: as §1
The markedly different dynamic fluorescence patterns of necrotic and non-necrotic breast tumor xenografts implanted in the mammary pads, motivated investigation of the correlation between the tumor histology and compound 13 fluorescence signal accumulation. […] Images were taken at several time points (10 min, 1, 4 and 24 h, 3, 5 and 7 days post injection) using Xenogen IVIS® System as described in Materials and Methods, section (vii). Results shown in FIGS. 23-29 present compound 13 fluorescence accumulation at different time points. For each time point, 3 animals were tested. […] At 4 h, there was some diffusion towards the necrotic domain. […] In this set of experiments it was shown that as time progresses, compound 13 moves through the viable domain into the necrotic domain and accumulates there specifically for a long period of time.
In view of the pattern of accumulation observed for compound 13, other Bchl derivatives were tested. […] Images were taken using Xenogen IVIS® System as described above. […] Similar results were observed when tumors were excised 3 and 5 days post drug injection (N=3 for each time point).

[8] = tested on: human ovarian MLS-mBanana primary tumors, necrotic (>1 cm^3); experiment: In-vivo NIR fluorescence imaging of uptake in MLS-mBanana primary necrotic tumors; parameters: species or system CD-1 nude female mice
Excerpt: In order to establish the generality of the results obtained in the experiments above, the accumulation of compound 13 in the necrotic domain was further examined in a different tumor type, generated from MLS-mBanana human ovarian cancer cell line. […] Shortly after injection, the compound 13 NIR fluoresces was mostly detected from the liver and the tumor.

[9] = tested on: MDA-MB-231-RFP non-necrotic and necrotic tumors at the mammary pad; experiment: Uptake of compound 25 in MDA-MB-231-RFP primary, necrotic and non necrotic tumors; format: in vivo, CD1-nude mice
Description: Two experiments were performed in order to determine whether the tumor up-take of compound 13 and the resulted accumulation of the NIR fluorescence signal are driven by the RGD moiety. In the first experiment the accumulation of the fluorescence signal at different times after compound 13 injection was compared to that of free 2H-MLT (compound 25) injection to CD1-nude mice grafted with MDA-MB-231-RFP non-necrotic (≦0.5 cm^3) and necrotic (˜1 cm^3) tumors at the mammary pad. The second experiment was a competition assay between compound 13 and free c(RGDfK).
Dynamic fluorescence images were acquired for both necrotic and non necrotic tumors every 1-1.5 h for 8.5-9 h, and at 24 h after initial injection of compound 25 (FIGS. 18A-18B and 20A-20B) and for every 24 h for the following three days (FIGS. 19A-19B and 21A-21B). […] The fluorescence signal values were ˜2 orders of magnitude smaller than the maximally observed values for compound 13 (at much longer time intervals). The fluorescence signal dropped down to non-significant values already at 20 min post injection. Meanwhile, the fluorescence signal accumulated mostly in the liver and in the heart.

[10] = tested on: MDA-MB-231-RFP non-necrotic tumors (~0.5 cm^3); experiment: In-vivo whole body NIR fluorescence imaging of drug up-take in primary non-necrotic MDA-MB-231-RFP xenograft tumors
Description: as §2, §3, §4

[11] = tested on: xenografts of primary tumors; conditions: up to; cited from earlier work

## CC[C@H]1c2cc3[nH]c(c(CC(=O)OC)c4nc(cc5[nH]c(cc(n2)[C@@H]1C)c(C(C)=O)c5C)[C@@H](C)[C@@H]4CCC(=O)NCCCC[C@@H]1NC(=O)[C@@H](Cc2ccccc2)NC(=O)[C@H](CC(=O)O)NC(=O)CNC(=O)[C@H](CCCNC(=N)N)NC1=O)c(C(=O)NCCS(=O)(=O)O)c3C [compound 13, 3^1-oxo-15-methoxycarbonylmethyl-Rhodobacteriochlorin 13^1-(2-sulfoethyl) amide-17^3-c(RGDfK)amide potassium salt]
[1]
  clearance from the tumor after accumulation: < 24 h
  complete drug clearance by that time: ≤ 3 days
  fluorescence from the non-necrotic tumors: practically no fluorescence
  time of peak tumor fluorescence, averaged measurements: 1 to 6.5 h
[2]
  almost complete drug clearance by that time: ≤ 4 days
  time at which NIR fluorescence reached peak values in the tumor: ~1 h
  time of peak tumor fluorescence, average measurements: 1 to 3.5 h
[3]; 140 nmol alone (control group)
  accumulation in the tumor: detectable
[3]; 140 nmol, 1 h after 8.5 μmol free c(RGDfK)
  accumulation in the tumor: no accumulation in the tumor was detected
[4]
  time of peak tumor concentration ratio, compared to other organs: ≥ 48 h
[4]; iv, 15 mg/kg
  clearance from the liver in the following days: completely clearing from the liver
  clearance from the tumor thereafter: extremely slow clearance
[5]; central necrosis
  presence of drug in excised tumor: clearly present in the necrotic domain
[5]; no central necrosis
  presence of drug in excised tumor: not present
[6]; from 192 h post injection
  ratio of the fluorescence between the tumor and the collateral side, plateau: ~8
[6]; post injection
  time from which tumor fluorescence signal is distinctively stronger than collateral side: ≥ 12 h
[7]; 10 min to 4 h post drug injection, 15 mg/kg
  location of drug fluorescence in excised tumor: only at the viable area
[7]; 24 h post injection
  location of drug fluorescence in excised tumor: higher drug fluorescence from the necrotic domain
[7]; from three days post injection (3, 5 and 7 days)
  location of drug fluorescence in excised tumor: shifted completely to the necrotic zone
[8]; mouse, in vivo
  clearance compared with MDA-MB-231-RFP necrotic tumors: markedly faster
  clearance from the tumor almost completed: 3 days
  complete drug clearance by that time: ≤ 4 days
  time of maximum concentration in the necrotic zone: 24 h
[8]; same linear fluorescence scale, 2 days post injection
  concentration in necrotic tumors versus non-necrotic tumors: much higher

## CC[C@H]1c2cc3[nH]c(c(CC(=O)OC)c4nc(cc5[nH]c(cc(n2)[C@@H]1C)c(C(C)=O)c5C)[C@@H](C)[C@@H]4CCC(=O)O)c(C(=O)NCCS(=O)(=O)[O-])c3C.[K+] [compound 25, 3^1-oxo-15-methoxycarbonylmethyl-Rhodo-bacteriochlorin 13^1-(2-sulfoethyl) amide potassium salt]
[9]; mouse, in vivo
  accumulation in small (non-necrotic) and large (necrotic) tumors: no short or long term accumulation was observed
  fluorescence signal values, smaller than the maximally observed values for compound 13: ~2 orders of magnitude
[9]; post injection
  time at which fluorescence signal dropped to non-significant values: ≤ 20 min
[9]; post injection, if any concentration was observed at all
  time of maximal concentration (NIR fluorescence signal) in the tumor: 5 to 10 min

## Palladium 3^1-oxo-15-methoxycarbonyl-methyl-Rhodobacteriochlorin 13^1-(2-sulfoethyl)amide-17^3-c(RGDfK)amide potassium salt [compound 24]
[10]; 15 mg/kg i.v., post drug injection
  time at which NIR fluorescence reached peak values in the liver: 5.5 h
[10]; 15 mg/kg i.v., post injection
  time at which NIR fluorescence reached peak values in the tumor: ~2.5 h
[10]; 24 hours post injection
  fluorescence from the non-necrotic tumors: practically no fluorescence
[10]; post drug injection, 16 animals (compound 13), 5 animals (compound 24)
  time of peak tumor fluorescence, averaged measurements: 1 to 4.5 h
[7]; nine days post drug injection, N=3
  presence of drug in excised tumor: clearly present in the necrotic domain
[11]
  accumulation in xenografts of primary tumors: 4 to 8 µM
